# Test results published in patent US20210395344A1 (TWIST BIOSCIENCE, published 2021).
# Positions count from the first letter of the chain named.
# B1: SARS-CoV-2 variant 1-22 (antibody, V domains shown)
# VH: EVQLLESGGGLVQPGGSLRLSCAASGFTFSSYAMNWVRQAPGKGLEWVSIISGSGGSTYYADSVKGRFTISRDNSKNTLYLQMNSLRAEDTAVYYCAREGYRDYLWYFDLWGQGTLVTVSS
# VL: QSALTQPASVSGSPGQSITISCTGTSTDVGSYNLVSWYQQHPGKAPKLMIYEGSQRPSGVSNRFSGSKSGNTASLTISGLQAEDEADYYCCSYAGSSTVFGGGTKLTVL
# B2: SARS-CoV-2 variant 1-23 (antibody, V domains shown)
# VH: B1 VH with M34I, N35S
# VL: B1 VL with T27N, S54N, Q55K, S97Y
# B3: SARS-CoV-2 variant 1-24 (antibody, V domains shown)
# VH: B1 VH
# VL: B1 VL with T27S, S31Y, S54N, Q55K, S96G, T98V
# B4: SARS-CoV-2 variant 1-38 (antibody, V domains shown)
# VH: EVQLLESGGGLVQPGGSLRLSCAASGITFSSYAMSWVRQAPGKGLEWVSGISGSGGSTYYADSVKGRFTISRDNSKNTLYLQMNSLRAEDTAVYYCAKHGSGTIFGVVIAKYYFDYWGQGTLVTVSS
# VL: QSALTQPASVSGSPGQSITISCTGTSSDIGSYNLVSWYQQHPGKAPKLMIYEGTKRPSGVSNRFSGSKSGNTASLTISGLQAEDEADYYCCSYAGSRTYVFGGGTKLTVL
# B5: SARS-CoV-2 variant 1-10 (antibody, V domains shown)
# VH: EVQLLESGGGLVQPGGSLRLSCAASGFTFSSYDMSWVRQAPGKGLEWVSVISGSGGSTYYADSVKGRFTISRDNSKNTLYLQMNSLRAEDTAVYYCAKGPLVGWYFDLWGQGTLVTVSS
# VL: QSALTQPASVSGSPGQSITISCTGTSSNVGSYNLVSWYQQHPGKAPKLMIYEGTKRPSGVSNRFSGSKSGNTASLTISGLQAEDEADYYCCSYAGSSSFVVFGGGTKLTVL
# B6: SARS-CoV-2 variant 1-30 (antibody, V domains shown)
# VH: EVQLLESGGGLVQPGGSLRLSCAASGFTFSSYAMTWVRQAPGKGLEWVSAISGSGGSTFYADSVKGRFTISRDNSKNTLYLQMNSLRAEDTAVYYCTRPPYGDYGDYWGQGTLVTVSS
# VL: B5 VL with S27R, N28D, S97R, S98T, F99P
# B7: SARS-CoV-2 variant 1-2 (antibody, V domains shown)
# VH: EVQLLESGGGLVQPGGSLRLSCAASGFTFSSQAMSWVRQAPGKGLEWVSAISGSGGGTYYADSVKGRFTISRDNSKNTLYLQMNSLRAEDTAVYYCAKDRRFGEFDPWGQGTLVTVSS
# VL: B5 VL with N28G, T54I
# B8: SARS-CoV-2 variant 1-9 (antibody, V domains shown)
# VH: B5 VH
# VL: B5 VL with N28D, S31D, T54S, K55N
# B9: SARS-CoV-2 variant 1-33 (antibody, V domains shown)
# VH: B6 VH with T35I
# VL: B5 VL with N28D, V35L, G53A, T54S, S97R, S98T, F99P
# B10: SARS-CoV-2 variant 1-3 (antibody, V domains shown)
# VH: B7 VH
# VL: B5 VL with T25I, N28D
# B11: SARS-CoV-2 variant 1-31 (antibody, V domains shown)
# VH: B6 VH with T35N
# VL: B5 VL with N28D, S31K, T54S, K55Q, S97R, S98T, F99P
# B12: SARS-CoV-2 variant 1-4 (antibody, V domains shown)
# VH: B7 VH
# VL: B5 VL with N28D, S31T, T54S, K55Q
# B13: SARS-CoV-2 variant 1-7 (antibody, V domains shown)
# VH: B5 VH
# VL: B5 VL with N28D, V29F, T54N, S98T
# B14: SARS-CoV-2 variant 1-5 (antibody, V domains shown)
# VH: B7 VH
# VL: B5 VL with N28G, G53A, T54S, S97Y, S98T, V100A
# Target: T1, Acro COVID S1 (S1N-C82E8) (SARS-CoV-2, UniProt P0DTC2 16-685)
# T1 construct: domain: S1 (subunit 1)
# Assay: phage ELISA
row,Binder,"specificity ELISA, fold over background [fold over background]"
1,B1,32.7
2,B2,5.1
3,B3,12.9
4,B4,1.1
5,B5,17.4
6,B6,16.8
7,B7,1.8
8,B8,10.7
9,B9,7.1
10,B10,1.6
11,B11,30.4
12,B12,1
13,B13,6.8
14,B14,1.5
